In publication PMC9523049, “Structures of Mec1/ATR kinase endogenously stimulated by different genotoxins” (Cell Discovery, 2022):

Biological target: T1, Mec1 (yeast homolog of ATR), wild type, activated in vivo by HU or MMS (yeast (endogenous in cultured yeast …, UniProt P38111 1-2368))
T1 construct: Mec1 kinase, yeast homolog of human ATR, wild type, endogenous; purified together with Ddc2; they may stand in the supplementary file; also called ATR/Mec1; Mec1/ATR kinase; source: endogenously purified from cultured yeast cells treated with HU or MMS
Test: cryo-EM structure; Mec1-Ddc2 complex endogenously purified from yeast cells treated with HU (HU-Dimer1, HU-Dimer2) or MMS (MMS-Dimer)
Conditions: both partners purified

T1 sequence (P38111 whole entry): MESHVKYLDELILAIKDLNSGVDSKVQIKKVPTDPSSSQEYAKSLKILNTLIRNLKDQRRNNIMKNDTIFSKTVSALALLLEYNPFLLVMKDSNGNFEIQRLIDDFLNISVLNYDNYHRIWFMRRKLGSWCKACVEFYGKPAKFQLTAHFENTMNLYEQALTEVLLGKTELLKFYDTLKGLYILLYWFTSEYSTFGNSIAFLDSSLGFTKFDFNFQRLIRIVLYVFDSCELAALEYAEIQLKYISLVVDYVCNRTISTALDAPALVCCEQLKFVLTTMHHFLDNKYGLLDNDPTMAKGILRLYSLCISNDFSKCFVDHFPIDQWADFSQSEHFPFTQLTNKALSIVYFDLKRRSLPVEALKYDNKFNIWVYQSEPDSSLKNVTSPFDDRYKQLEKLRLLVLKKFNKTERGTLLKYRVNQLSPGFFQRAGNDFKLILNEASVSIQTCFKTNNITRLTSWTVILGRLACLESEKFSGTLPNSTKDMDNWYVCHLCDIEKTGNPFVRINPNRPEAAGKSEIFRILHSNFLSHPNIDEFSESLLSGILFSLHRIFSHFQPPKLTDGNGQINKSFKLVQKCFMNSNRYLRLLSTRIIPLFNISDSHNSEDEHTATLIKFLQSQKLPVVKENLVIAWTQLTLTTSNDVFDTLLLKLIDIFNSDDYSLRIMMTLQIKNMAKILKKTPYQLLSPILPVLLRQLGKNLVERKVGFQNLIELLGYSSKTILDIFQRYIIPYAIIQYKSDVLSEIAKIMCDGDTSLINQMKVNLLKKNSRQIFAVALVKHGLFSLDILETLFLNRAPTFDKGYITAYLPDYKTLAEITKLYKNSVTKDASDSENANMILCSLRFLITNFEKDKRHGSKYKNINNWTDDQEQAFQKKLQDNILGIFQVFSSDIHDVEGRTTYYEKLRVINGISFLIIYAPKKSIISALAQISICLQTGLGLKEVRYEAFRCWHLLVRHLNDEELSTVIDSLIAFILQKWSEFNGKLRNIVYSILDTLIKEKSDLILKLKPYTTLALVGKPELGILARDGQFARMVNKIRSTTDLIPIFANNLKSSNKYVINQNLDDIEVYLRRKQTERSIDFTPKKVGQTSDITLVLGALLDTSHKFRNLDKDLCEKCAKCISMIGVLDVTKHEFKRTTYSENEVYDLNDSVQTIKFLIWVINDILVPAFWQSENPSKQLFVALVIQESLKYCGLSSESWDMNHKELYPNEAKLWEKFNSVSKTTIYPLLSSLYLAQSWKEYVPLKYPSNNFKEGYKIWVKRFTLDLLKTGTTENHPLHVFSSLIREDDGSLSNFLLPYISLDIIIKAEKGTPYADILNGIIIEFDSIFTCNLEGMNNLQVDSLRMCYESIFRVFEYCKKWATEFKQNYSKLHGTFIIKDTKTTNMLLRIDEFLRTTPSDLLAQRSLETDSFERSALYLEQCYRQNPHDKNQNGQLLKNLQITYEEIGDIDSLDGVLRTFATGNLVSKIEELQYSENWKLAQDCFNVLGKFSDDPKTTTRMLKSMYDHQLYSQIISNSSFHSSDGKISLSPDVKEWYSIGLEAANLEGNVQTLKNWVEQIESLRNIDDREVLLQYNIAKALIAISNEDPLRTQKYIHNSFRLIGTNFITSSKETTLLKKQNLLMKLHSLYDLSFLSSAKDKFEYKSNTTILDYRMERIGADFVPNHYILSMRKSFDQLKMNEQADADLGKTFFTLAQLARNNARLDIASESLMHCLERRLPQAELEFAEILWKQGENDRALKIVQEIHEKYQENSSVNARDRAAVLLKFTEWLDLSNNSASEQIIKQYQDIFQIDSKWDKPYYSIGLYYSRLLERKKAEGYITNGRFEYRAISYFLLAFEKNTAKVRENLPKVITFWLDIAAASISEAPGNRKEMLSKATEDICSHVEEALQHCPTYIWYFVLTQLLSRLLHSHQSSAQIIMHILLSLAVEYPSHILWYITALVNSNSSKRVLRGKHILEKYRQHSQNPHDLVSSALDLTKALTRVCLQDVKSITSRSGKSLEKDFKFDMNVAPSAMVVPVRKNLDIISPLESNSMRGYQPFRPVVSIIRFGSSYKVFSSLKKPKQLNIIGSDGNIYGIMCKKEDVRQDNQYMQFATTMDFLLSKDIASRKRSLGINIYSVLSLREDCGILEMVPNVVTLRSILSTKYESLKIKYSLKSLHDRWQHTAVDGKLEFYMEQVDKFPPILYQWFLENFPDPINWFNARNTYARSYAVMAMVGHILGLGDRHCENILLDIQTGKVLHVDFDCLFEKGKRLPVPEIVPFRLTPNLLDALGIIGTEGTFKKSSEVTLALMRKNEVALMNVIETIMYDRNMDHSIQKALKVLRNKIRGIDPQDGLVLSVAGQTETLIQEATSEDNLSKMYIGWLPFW

binding result: binds
B1: Ddc2 (yeast homolog of ATRIP) (natural protein, UniProt Q04377 1-747, looked up)
chain: MRRETVGEFSSDDDDDILLELGTRPPRFTQIPPSSAALQTQIPTTLEVTTTTLNNKQSKNDNQLVNQLNKAQGEASMLRDKINFLNIEREKEKNIQAVKVNELQVKHLQELAKLKQELQKLEDEKKFLQMEARGKSKREVITNVKPPSTTLSTNTNTITPDSSSVAIEAKPQSPQSKKRKISDNLLKKNMVPLNPNRIIPDETSLFLESILLHQIIGADLSTIEILNRLKLDYITEFKFKNFVIAKGAPIGKSIVSLLLRCKKTLTLDRFIDTLLEDIAVLIKEISVHPNESKLAVPFLVALMYQIVQFRPSATHNLALKDCFLFICDLIRIYHHVLKVPIHESNMNLHVEPQIFQYELIDYLIISYSFDLLEGILRVLQSHPKQTYMEFFDENILKSFEFVYKLALTISYKPMVNVIFSAVEVVNIITSIILNMDNSSDLKSLISGSWWRDCITRLYALLEKEIKSGDVYNENVDTTTLHMSKYHDFFGLIRNIGDNELGGLISKLIYTDRLQSVPRVISKEDIGMDSDKFTAPIIGYKMEKWLLKLKDEVLNIFENLLMIYGDDATIVNGEMLIHSSKFLSREQALMIERYVGQDSPNLDLRCHLIEHTLTIIYRLWKDHFKQLREEQIKQVESQLIMSLWRFLVCQTETVTANEREMRDHRHLVDSLHDLTIKDQASYYEDAFEDLPEYIEEELKMQLNKRTGRIMQVKYDEKFQEMARTILESKSFDLTTLEEADSLYISMGL
notes: Ddc2, yeast homolog of human ATRIP, endogenous; purified together with Mec1; they may stand in the supplementary file; source: endogenously purified from cultured yeast cells treated with HU or MMS
